In patent publication US20260224711A1, “ENHANCING BRAIN PERMEABILITY AND ACTIVITY OF GLUCOSYLCERAMIDASE (GCase) PROSNA FOR NEURODEGENERATIVE DISEASES” (NORTHWESTERN UNIVERSITY, priority 2023, published 2026):
Entries after “also recorded” stand apart in the source; their conditions may differ. Read-outs that look alike come from different tables or passages of the source.

T1: GCase ProSNA constructs (Homo sapiens, UniProt P04062)
T1 sequence (P04062 40-536): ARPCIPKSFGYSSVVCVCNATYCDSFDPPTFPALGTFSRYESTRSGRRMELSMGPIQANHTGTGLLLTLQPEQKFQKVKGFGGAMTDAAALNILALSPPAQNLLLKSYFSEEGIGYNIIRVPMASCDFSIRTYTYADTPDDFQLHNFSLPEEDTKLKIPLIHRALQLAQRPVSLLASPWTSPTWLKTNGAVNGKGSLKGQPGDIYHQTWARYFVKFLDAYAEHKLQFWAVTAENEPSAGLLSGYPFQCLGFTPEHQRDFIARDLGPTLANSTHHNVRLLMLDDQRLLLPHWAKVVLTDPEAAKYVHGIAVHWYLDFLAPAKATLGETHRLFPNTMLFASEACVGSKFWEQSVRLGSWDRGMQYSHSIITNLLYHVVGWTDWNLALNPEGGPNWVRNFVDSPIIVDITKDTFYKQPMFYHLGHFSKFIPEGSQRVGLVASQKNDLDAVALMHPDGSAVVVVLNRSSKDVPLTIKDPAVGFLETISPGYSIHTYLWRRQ

T2: GCase (Homo sapiens, UniProt P04062)
T2 construct: purchased GenScript; host or cells: CHO expression system
T2 sequence (P04062 40-536): T1 sequence (P04062 40-536)

B1: Bivalent ProSNA: GCase protein functionalized with the bivalent ligand (folate modified transferrin aptamer), roughly 14-18 ligands per protein (conjugate, UniProt P04062 40-536, looked up)
Lysosomal acid …: T1 sequence (P04062 40-536)
modifications: folate-modified transferrin aptamer shell, 14-18 ligands
notes: GCase protein functionalized with the bivalent ligand (folate modified transferrin aptamer), roughly 14-18 ligands per protein
B2: PEGylated protein: GCase after PEGylation, comparator in the activity assay (conjugate, UniProt P04062 40-536, looked up)
Lysosomal acid …: T1 sequence (P04062 40-536)
modifications: PEGylated
B3: Univalent ProSNA: GCase protein functionalized with only the transferrin aptamer (conjugate, UniProt P04062 40-536, looked up)
Lysosomal acid …: T1 sequence (P04062 40-536)
modifications: transferrin aptamer DNA shell

Tests used:
[1] = target: T1, GCase ProSNA constructs; conditions: co-incubation / co-assembly of activator with GCase ProSNA construct
Text: Next, the assay is repeated with generated GCase ProSNA constructs to investigate whether some of the activity lost during activation can be recovered.

[2] = target: native GCase protein (Homo sapiens, UniProt P04062); conditions: GCase 1.9 mg/mL, quetiapine introduced 30 minutes prior to substrate, FIG. 10
Method: The purpose behind enzyme replacement therapy (ERT) is to replace protein that is either absent or dysregulated. […] This assay was completed using the same fluorometric kit described above, with quetiapine being introduced 30 minutes prior to the GCase substrate.

[3] = tested on: α-synuclein protein aggregates; conditions: cited from earlier work
[4] = mouse, in vivo
Method: Fluorescently labeled constructs are administered to mice by different routes of injection including intravenously by way of retroorbital or tail vein injection, as well as intrathecally. At set time points the mice are imaged using IVIS to track the biodistribution patterns.

[5] = tested on: Human endothelial cells cultured alone or with microglial and astrocyte cells on a transwell membrane
Method: The ability of the construct to pass the BBB is also assessed. […] To investigate this an in vitro transwell model of transcytosis is used. Human endothelial cells are cultured alone or in concert with microglial and astrocyte cells on a transwell membrane. Once confluent, the constructs are added to the apical side of the insert and their transcytosis through the cell monolayer to the basolateral side of the insert is quantified by fluorescence.

[6] = tested on: neurons (dopaminergic), astrocytes, and microglia; assay: flow cytometry uptake into neuronal cell types; assay type: cell-based
Text: The ability of the GCase ProSNA constructs to be taken up into cells will be assessed. To investigate their uptake potential, flow cytometry is used as a method for determining the percent uptake of the constructs compared to control groups (unmodified GCase protein, linear bivalent DNA ligand, GCase-Transferrin aptamer, and GCase-Folic Acid). Constructs are synthesized as described previously, including the fluorescent tagging the GCase protein core as well as including a Cyanine3 dye into the aptamer sequence (Folate-SEQ ID NO: 1-Cy3-DBCO dT). Once prepared, the constructs are used to treat different mono-populations of different neuronal cell types, including neurons (dopaminergic), astrocytes, and microglia, to evaluate their uptake ability. In all cases, a live dead stain is used to determine percent uptake in viable populations. Furthermore, uptake across different time points is assessed to determine the rates at which the constructs are endocytosed and processed by the different cell types.

[7] = target: T2, GCase; assay: fluorometric GCase activity assay kit (Abcam) on GCase constructs; assay type: biochemical; conditions: constructs at 0.24 mg/mL, GCase substrate 30 minutes at 37° C., FIG. 9; for protein activity after functionalization, compared with unmodified GCase: fluorescence Ex/Em=360/445
Method: Upon interaction with active GCase, this substrate releases a fluorophore detectable using a plate reader at Ex/Em=360/445 nm.
Following the synthesis process, a comprehensive investigation into the impact of synthesis on protein activity was conducted. To assess this, we employed a fluorometric GCase activity assay kit (Abcam), using a synthetic substrate-4-Methylumbelliferyl β-D-glucopyranoside. Upon interaction with active GCase, this substrate releases a fluorophore detectable using a plate reader at Ex/Em=360/445 nm. The focus extended to evaluating the effects of PEGylation on GCase, along with modifications involving univalent (sole presence of the transferrin aptamer) or bivalent (co-presence of both transferrin and folate) DNA ligands. By using the protocol outlined in this assay, the aim was to understand and analyze the variations in protein activity resulting from these modifications. Briefly, GCase constructs (all at 0.24 mg/mL) were reacted with GCase substrate for 30 minutes at 37° C. They were then measured for fluorescence intensity at Ex/Em=360/445. […] This was a key finding as PEGylation is currently one of the most used methods to improve protein delivery.

Row | Molecule | GCase activity of ProSNA constructs with small molecule activator [1] | protein activity after functionalization, compared with unmodified GCase [7] | protein activity, PEGylated protein versus ProSNA constructs [7] | protein activity, univalent versus bivalent constructs [7] | also measured
1 | Nc1c(Br)cc(Br)cc1CN[C@H]1CC[C@H](O)CC1 [Ambroxol] | elevation in enzyme activity; also recorded: partial recovery of GCase activity | – | – | – | –
2 | OCCOCCN1CCN(C2=Nc3ccccc3Sc3ccccc32)CC1 [quetiapine] | elevation in enzyme activity; also recorded: partial recovery of GCase activity | – | – | – | activity of the native GCase protein ([2]; 5 μM quetiapine): sufficient to increase the activity of the native protein; activity of the native GCase protein ([2]; 10 μM quetiapine): sufficient to increase the activity of the native protein; presence of α-synuclein protein aggregates [3]: reduce the presence of α-synuclein protein aggregates
3 | B1 | – | functionalization does impact protein activity; also recorded: reduction of overall activity | significant increase in activity | no significant difference between the univalent and bivalent variations; also recorded: no significant difference between the uni- and bivalent constructs | biodistribution (localization to the brain space) [4]: localize to the brain space in higher concentrations when compared to control groups; rate of transcytosis across the blood-brain barrier [5]: significant increase in the rate of transcytosis across the blood-brain barrier was observed; rate of transcytosis compared to control groups [5]: higher rate of transcytosis when compared to control groups; rates of uptake across time points ([6]; different time points): highest at shorter time points; uptake into cells compared to control groups ([6]; neurons (dopaminergic), astrocytes, microglia, flow cytometry): enhance its uptake into all cell types
4 | B2 | – | – | significant increase in activity when comparing the PEGylated protein to both ProSNA constructs | – | –
5 | B3 | – | functionalization does impact protein activity | significant increase in activity | no significant difference between the univalent and bivalent variations; also recorded: no significant difference between the uni- and bivalent constructs | –
